IntAct's records for PubMed 22908257

Target: ABI2, O04719-1
Sequence (O04719 whole entry): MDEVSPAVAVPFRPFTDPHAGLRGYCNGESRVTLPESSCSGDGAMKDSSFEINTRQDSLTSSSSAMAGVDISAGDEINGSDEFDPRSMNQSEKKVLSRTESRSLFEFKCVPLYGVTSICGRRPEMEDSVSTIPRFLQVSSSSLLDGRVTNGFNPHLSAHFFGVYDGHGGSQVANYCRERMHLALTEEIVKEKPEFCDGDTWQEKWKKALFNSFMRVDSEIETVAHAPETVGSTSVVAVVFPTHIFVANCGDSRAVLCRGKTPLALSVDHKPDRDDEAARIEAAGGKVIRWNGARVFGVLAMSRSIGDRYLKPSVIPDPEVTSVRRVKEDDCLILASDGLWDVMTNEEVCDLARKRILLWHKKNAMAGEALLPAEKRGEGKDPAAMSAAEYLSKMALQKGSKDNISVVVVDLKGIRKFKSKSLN

Sequence of Rac-like GTP-binding protein ARAC10 (Arabidopsis thaliana (Mouse-ear cress)), O82481 D123A (O82481 whole entry D123A): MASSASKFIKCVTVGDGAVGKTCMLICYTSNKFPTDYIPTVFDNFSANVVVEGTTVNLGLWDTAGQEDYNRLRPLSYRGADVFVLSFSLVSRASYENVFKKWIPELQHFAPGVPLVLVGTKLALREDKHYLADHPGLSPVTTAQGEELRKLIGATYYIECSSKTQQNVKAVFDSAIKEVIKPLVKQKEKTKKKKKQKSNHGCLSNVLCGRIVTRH

effect of a mutation on the interaction: disrupting interaction strength
Substance: Rac-like GTP-binding protein ARAC10 (Arabidopsis thaliana (Mouse-ear cress)), O82481 D123A
